This passage reports protein stability index results from the supplement of paper PMC10567573.

± gives the standard deviation.

A short description of the data set: protein stability index of a GFP-peptide fusion (GPS, HEK-293T) (PSI 1-6); higher = more stable. To be noted: c terminus: a fixed tail appended.
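Note: 24-mer peptide tiles fused after GFP, lentivirally expressed, FACS-sorted into six equal bins by GFP/DsRed ratio, decoded by Illumina sequencing, PSI is the read-weighted mean bin number.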

With YKPPALKKSNSPGTASSGSSRLPQ [ZC2HC1A], the protein stability index is, setting by setting: (treatment: DMSO) 4.46 ± 0.079; (treatment: MLN4924 1 uM, 8 h) 4.51 ± 0.2.

As for YKRRIDAENSPYLNPQLVQPAKKP [ESRRG], the protein stability index by setting is: (treatment: DMSO) 4.01 ± 0.27; (treatment: MLN4924 1 uM, 8 h) 3.85 ± 0.33.

Regarding YLDPSVLSGVSCFVMFLCLADYLV [ARL6IP1], the protein stability index by setting is: (treatment: DMSO) 2.98 ± 0.21; (treatment: MLN4924 1 uM, 8 h) 2.97 ± 0.39.

On to YLLHPAAFHGAPSHLPTRSPSFPE [TBX6], for which the protein stability index reads like this: (treatment: DMSO) 2.49 ± 0.28; (treatment: MLN4924 1 uM, 8 h) 2.87 ± 0.26.

Regarding YLQIFATRRSCIDESQISAEEAED [FAM189A2], the protein stability index amounted to 3.71 ± 0.14 (treatment: DMSO) and 3.92 ± 0.32 (treatment: MLN4924 1 uM, 8 h).

For the sequence YPVVVAESMYGDFQEAMTHLQHKL [TENT5D], the protein stability index was 2.49 ± 0.15 (treatment: DMSO) and 2.81 ± 0.38 (treatment: MLN4924 1 uM, 8 h).

Consider YQETISDVLNDAIFDEDHDEMVIV [GCH1], for which the protein stability index is 3.98 ± 0.09 (treatment: DMSO) and 4.02 ± 0.25 (treatment: MLN4924 1 uM, 8 h).

YQKILAGKIDFPRHLDFHVKDLIK [PRKX]: the protein stability index came to 2.19 ± 0.97 (treatment: DMSO) and 2.1 ± 0.4 (treatment: MLN4924 1 uM, 8 h).

For the sequence YRFFKYIENRDVAKSVLKERGLKK [BTBD10], the protein stability index was 2.44 ± 0.25 (treatment: DMSO) and 2.52 ± 0.3 (treatment: MLN4924 1 uM, 8 h).

The sequence YRNLTHNPPSDFSFQNMNSKRKAE [STK38L] showed a protein stability index (treatment: DMSO) of 4.47 ± 0.17 and a protein stability index (treatment: MLN4924 1 uM, 8 h) of 4.58 ± 0.087.

YTCHECGDSFSHSSNRIRHLRTHT [ZNF263]: the protein stability index amounted to 3.04 ± 0.18 (treatment: DMSO) and 3.32 ± 0.33 (treatment: MLN4924 1 uM, 8 h).

On to YTFIIVPKMLVDLLSQKKTISFLG [OR10K2], for which the protein stability index by setting is: (treatment: DMSO) 3.09 ± 0.14; (treatment: MLN4924 1 uM, 8 h) 2.7 ± 0.28.

For YTMLLGRPPFETTNLKETYRCIRE [PLK2], the protein stability index reads like this: (treatment: DMSO) 2.32 ± 0.3; (treatment: MLN4924 1 uM, 8 h) 2.4 ± 0.22.

Sequence YTYEKLLWTTSRVLKVLSVCSSNK [CTNNB1] came in with a protein stability index (treatment: DMSO) of 2.47 ± 0.36 and a protein stability index (treatment: MLN4924 1 uM, 8 h) of 2.22 ± 0.43.

For YVKAKKSIDKDEEFAGSSPQSSKS [FAN1], the protein stability index runs as follows: (treatment: DMSO) 3.57 ± 0.67; (treatment: MLN4924 1 uM, 8 h) 4.16 ± 0.65.

On to YVKVFEHFLENLDKSRKGELLKKS [PRIM1], for which the protein stability index was determined as 1.96 ± 0.31 (treatment: DMSO) and 2.09 ± 0.48 (treatment: MLN4924 1 uM, 8 h).

Regarding YYSPILDQWTPIAAMLRGQSDVGV [KLHL13], the protein stability index came to 2.4 ± 0.3 (treatment: DMSO) and 2.26 ± 0.3 (treatment: MLN4924 1 uM, 8 h).
